Experimental data published in PMC7717961, “O-GlcNAcylation Suppresses the Ion Current IClswell by Preventing the Binding of the Protein ICln to α-Integrin” (Frontiers in Cell and Developmental Biology, 2020).
Positions count from the first letter of the chain named.

B1: ICln: 100 μM PUGNAc plus 5 mM glucosamine (protein)
parent chain: MSFLKSFPPPGPAEGLLRQQPDTEAVLNGKGLGTGTLYIAESRLSWLDGSGLGFSLEYPTISLHALSRDRSDCLGEHLYVMVNAKFEEESKEPVADEEEEDSDDDVEPITEFRFVPSDKSALEAMFTAMCECQALHPDPEDEDSDDYDGEEYDVEAHEQGQGDIPTFYTYEEGLSHLTAEGQATLERLEGMLSQSVSSQYNMAGVRTEDSIRDYEDGMEVDTTPTVAGQFEDADVDH
B2: ECFP-ICln Ser67Ala (natural protein, UniProt P54105 1-237, looked up)
chain: B1 parent chain with S67A
notes: ICln with Ser67Ala, made by site-directed mutagenesis of the vector with the wild-type ICln cDNA; also called Ser67Ala ICln; source: NIH/3T3, transfected for 48 h, in fixed cells; not shown: ECFP, N-terminal, kept

How the values were obtained:
[1] = patch clamp, IClswell in wild-type ICln-transfected cells; details: control: vehicle (0.1% DMSO plus 5 mM D-glucose)
[2] = biological target: T1, integrin αIIbshort-EYFP (amino acids 987-1039 of the human integrin αIIb chain fused to EYFP) (human, UniProt P08514-1 987-1039); assay: FRET or BRET; acceptor photobleaching FRET in fixed NIH/3T3 cells transfected for 48 h; donor ECFP-ICln, acceptor αIIbshort-EYFP; FRET efficiency in three-four plasma membrane ROIs of each cell; O-GlcNAcylation left unmodified, increased with 100 μM PUGNAc plus 5 mM glucosamine for 1 h, or reduced by co-transfection of OGA-L; details: partners not purified
T1 construct: human integrin αIIb chain, amino acids 987-1039 of NP_000410.2 (integrin αIIbshort); also called αIIbs-EYFP; αIIb integrin; source: NIH/3T3, transfected for 48 h, in fixed cells; not shown: EYFP, C-terminal, kept
T1 sequence (P08514 987-1039): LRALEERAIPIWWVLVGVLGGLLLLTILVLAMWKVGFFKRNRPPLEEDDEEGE

Binder	other: channel current, other: % variation of current at +100 mV [1]	FRET efficiency relative to wild-type ICln [2] [fold]
B1	decreases	–
B2	–	~3
